This assay addresses Get1/2 heterodimer, cytosolically labeled (Get1-S77C-Cy5 and Get2-S28C-Cy3) (yeast) (UniProt P53192). Nature of the assay: FRET or BRET. A general note: Bioluminescence resonance energy transfer reports proximity on the nanometre scale.

The values below come from PMC5657598.

What is called Kd is the equilibrium constant for the complex coming apart. Low readings indicate tighter binding, high ones weaker binding.

B1: Get3-D57N (enzyme)
chain: MDLTVEPNLHSLITSTTHKWIFVGGKGGVGKTTSSCSIAIQMALSQPNKQFLLISTNPAHNLSDAFGEKFGKDARKVTGMNNLSCMEIDPSAALKDMNDMAVSRANNNGSDGQGDDLGSLLQGGALADLTGSIPGIDEALSFMEVMKHIKRQEQGEGETFDTVIFDTAPTGHTLRFLQLPNTLSKLLEKFGEITNKLGPMLNSFMGAGNVDISGKLNELKANVETIRQQFTDPDLTTFVCVCISEFLSLYETERLIQELISYDMDVNSIIVNQLLFAENDQEHNCKRCQARWKMQKKYLDQIDELYEDFHVVKMPLCAGEIRGLNNLTKFSQFLNKEYNPITDGKVIYELEDKE
As to B1, the Kd was < 1 nM and the stoichiometry N (Get3 homodimer per Get1/2 heterodimer) was determined as 1.
